The values that follow come from US20260125472A1 (HEFEI TG IMMUNOPHARMA, published 2026).

Assay [1] has as its target T1, CD3E&D protein (UniProt P04234 22-105).
T1 construct: Purchased from Acro; also called CD3 E&D antigens; CD3E&D antigen protein
Nature of the assay: ELISA, coated CD3E&D protein, OD450 [panel B]. Here is the method: In this example, the binding properties of the parental antibody Cross3 and the CD3 affinity-reduced antibody (the production method and the amino acid sequences of the heavy and light chains were shown in Example 1) were detected by ELISA. The CD3E&D protein was coated onto a 96-well plate by the inventors, and the strength of the signal after the addition of the antibody was used to determine the binding properties of the antibody and CD3E&D.
CD3E&D protein (purchased from Acro) was diluted to 2 μg/ml with PBS buffer, added to a 96-well plate at a volume of 100 μL/well, and placed at 4° C. overnight. The PBS buffer in the 96-well plate was aspirated, and the plate was washed 6 times with PBST (pH 7.2 PBS containing 0.1% Tween 20) buffer. Then, 200 μL/well PBS/10% BSA was added and incubated at 37° C. for 2 h for blocking. The blocking solution was removed, and the plate was washed six times with PBST. Then, the to-be-tested antibodies serially diluted with PBST/0.05% BSA, Cross3, Cross303, Cross307, Cross308, Cross309, Cross310, Cross311, Cross312, Cross313, Cross314, Cross316, Cross317, Cross318, Cross323, Cross325, Cross326, and control IgG1 (purchased from Bio-Tech) were added at 100 μL/well, and incubated at 37° C. for 1 h. The reaction system was removed, and the plate was washed 6 times with PBST. Then, the cells were incubated at 37° C. for 1 h with HRP (horseradish peroxidase)-labeled anti-human secondary antibody (Fab specific) (purchased from Sigma) serially diluted with PBST/0.05% BSA at 100 μL/well. The plate was washed six times with PBST, TMB (tetramethylbenzidine) was added at 80 μL/well and incubated at room temperature for 3 min. 4 M sulfuric acid was added at 80 μL/well to terminate the reaction. The absorbance was read at 450 nm using a microplate reader.

For assay [2], the target named is T1, CD3E&D protein. Put plainly: SPR (Biacore 8K), antibody on CM5 chip, CD3 E&D antigen as analyte. Also on record: Fold change: reference not given here. Here is the method:
In a Biacore 8K (Cytiva) system, the antibody was diluted to 10 μg/mL in HBS-EP running buffer and coupled to a CM5 chip (Cytiva) at a flow rate of 10 μL/min.
(SPR reads the build-up and loss of mass on a sensor chip optically.)

Assay [3] addresses T2, CD3 on CD8 T cells (Homo sapiens (Human), UniProt P07766 23-207).
T2 construct: Native CD3 complex on CD8 T cells among PBMCs; also called T cells (PBMCs gated with anti-human CD8 antibody)
Nature of the assay: flow cytometry, CD8 T cells in PBMCs, binding ratio % [panel A]. On the procedure:
PBMCs were diluted with PBS to 2×10⁶/mL and added to a 1.5 ml EP tube at a volume of 100 μL/tube, 10 μL/tube of goat serum was added thereto and incubated at 4° C. for 30 min for blocking. […] 1 mL of PBS was added to the EP tube, followed by centrifugation at 3500 rpm for 5 min at 4° C. The supernatant was discarded, and the cells were washed again with PBS. After centrifugation, the supernatant was discarded, and the cells were resuspended with 100 μl/tube PBS. 1 μl/tube Alexa-647-labeled goat anti-human secondary antibody (purchased from Jackson lab) and 0.5 μl/tube PerCP-Cy5.5-labeled anti-human CD8 antibody were added and incubated at 4° C. in the dark for 30 min. The cells were washed twice with PBS, and the supernatant was discarded after centrifugation. The cells were resuspended with […] of PBS and assayed using the flow cytometry.
(In general: In flow cytometry, cells or beads pass a laser one at a time.)

T2 sequence (P07766 23-207 limits assumed): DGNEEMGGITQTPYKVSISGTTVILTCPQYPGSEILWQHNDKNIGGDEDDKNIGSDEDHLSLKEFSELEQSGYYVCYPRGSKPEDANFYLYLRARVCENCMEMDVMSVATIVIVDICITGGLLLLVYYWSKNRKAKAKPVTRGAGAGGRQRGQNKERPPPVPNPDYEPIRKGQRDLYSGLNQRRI
T1 sequence (chain, as listed by the source limits assumed, chain 1 of 2): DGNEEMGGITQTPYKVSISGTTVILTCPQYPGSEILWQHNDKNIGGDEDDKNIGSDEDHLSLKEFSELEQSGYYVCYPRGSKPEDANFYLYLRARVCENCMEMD
T1 sequence (P04234 22-105 limits assumed, chain 2 of 2): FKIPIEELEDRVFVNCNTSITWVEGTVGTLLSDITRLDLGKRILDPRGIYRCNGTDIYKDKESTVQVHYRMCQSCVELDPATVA

B1: Cross311 (antibody, human IgG1, kappa, V domains shown)
VH: EVQLLESGGGLVQPGGSLKLSCAASGFTFNTYAMNWVRQAPGKGLEWVARIRSKYNNYATYYADSVKDRFTISRDDSKNTAYLQMNNLKTEDTAVYYCVRHGNFGNSEVSWFAYWGQGTLVTVSS
VL: ELVVTQEPSLTVSPGGTVTLTCRSSTGAVTTSNYANWVQQKPGQAPRGLIGGTNKRAPGTPARFSGSLLGGKAALTLSGVQPEDEAEYYCALWYSNLWVFGGGTKLTVLR
In general, EC50 (read off the curve) refers to the concentration needed to bring the measured effect to its halfway point. By Kd is commonly meant the concentration at which binding is half-saturated. What is called koff is the first-order rate constant of dissociation. In general, kon refers to the second-order rate constant of association. On to B1, for which the “EC50 (read off the curve)” value in assay [1] is around 0.03 µg/mL. Moreover, in assay [2], the Fold change came out at 27.6, binding was characterised by a dissociation constant (Kd) of 4.55 nM, the koff turned out to be 0.00959 s⁻¹ and the kon is 2.11e+06 M⁻¹ s⁻¹. Also, the concentration giving a half-maximal response (EC50 (read off the curve)) in assay [3] is around 0.3 µg/mL.

B2: Cross312 (antibody, human IgG1, kappa, V domains shown)
VH: EVQLLESGGGLVQPGGSLKLSCAASGFTFNTYAMNWVRQAPGKGLEWVARIRSKYNNYATYYADSVKDRFTISRDDSKNTAYLQMNNLKTEDTAVYYCVRHGNFGNSYHSWFAYWGQGTLVTVSS
VL: ELVVTQEPSLTVSPGGTVTLTCRSSTGAVTTSNYANWVQQKPGQAPRGLIGGTNKRAPGTPARFSGSLLGGKAALTLSGVQPEDEAEYYCALWYSNLWVFGGGTKLTVLR
As for B2, the “EC50 (read off the curve)” value in assay [1] is around 0.03 µg/mL. Also, in assay [2], the Fold change was found to be 21.2, the dissociation constant Kd is 3.5 nM, the koff stood at 0.0107 s⁻¹ and the kon turned out to be 3.05e+06 M⁻¹ s⁻¹. Further, in assay [3], the concentration giving a half-maximal response (EC50 (read off the curve)) was around 0.3 µg/mL.

B3: Cross313 (antibody, human IgG1, kappa, V domains shown)
VH: EVQLLESGGGLVQPGGSLKLSCAASGFTFNTYAMNWVRQAPGKGLEWVARIRSKYNNYATYYADSVKDRFTISRDDSKNTAYLQMNNLKTEDTAVYYCVRHGNFGNSYQSWFAYWGQGTLVTVSS
VL: ELVVTQEPSLTVSPGGTVTLTCRSSTGAVTTSNYANWVQQKPGQAPRGLIGGTNKRAPGTPARFSGSLLGGKAALTLSGVQPEDEAEYYCALWYSNLWVFGGGTKLTVLR
Take B3: in assay [1], the “EC50 (read off the curve)” value was around 0.03 µg/mL. In assay [2], this molecule gave a Fold change of 11.6, a Kd of 1.92 nM, a koff of 0.00567 s⁻¹ and a kon of 2.96e+06 M⁻¹ s⁻¹. In addition, the half-maximal effective concentration (EC50 (read off the curve)) in assay [3] is around 0.3 µg/mL.

B4: Cross316 (antibody, human IgG1, kappa, V domains shown)
VH: EVQLLESGGGLVQPGGSLKLSCAASGFTFNTYAMNWVRQAPGKGLEWVARIRSKYNNYATYYADSVKDRFTISRDDSKNTAYLQMNNLKTEDTAVYYCVRHGNFGNSYVSWFLYWGQGTLVTVSS
VL: ELVVTQEPSLTVSPGGTVTLTCRSSTGAVTTSNYANWVQQKPGQAPRGLIGGTNKRAPGTPARFSGSLLGGKAALTLSGVQPEDEAEYYCALWYSNLWVFGGGTKLTVLR
On to B4, for which the “EC50 (read off the curve)” value in assay [1] is around 0.03 µg/mL. In assay [2], this molecule registered a Fold change of 20.8, a Kd of 3.43 nM, a koff of 0.00249 s⁻¹ and a kon of 728000 M⁻¹ s⁻¹. For the same molecule, the “EC50 (read off the curve)” value in assay [3] was around 0.3 µg/mL.

B5: Cross314 (antibody, human IgG1, kappa, V domains shown)
VH: EVQLLESGGGLVQPGGSLKLSCAASGFTFNTYAMNWVRQAPGKGLEWVARIRSKYNNYATYYADSVKDRFTISRDDSKNTAYLQMNNLKTEDTAVYYCVRHGNFGNSYSSWFAYWGQGTLVTVSS
VL: ELVVTQEPSLTVSPGGTVTLTCRSSTGAVTTSNYANWVQQKPGQAPRGLIGGTNKRAPGTPARFSGSLLGGKAALTLSGVQPEDEAEYYCALWYSNLWVFGGGTKLTVLR
Take B5: the “EC50 (read off the curve)” value in assay [1] is around 0.03 µg/mL. Moreover, in assay [2], the Fold change worked out at 26.5; the affinity, expressed as Kd, was 4.37 nM; the off-rate constant (koff) was 0.00887 s⁻¹; the kon is 2.03e+06 M⁻¹ s⁻¹. Further, the “EC50 (read off the curve)” value in assay [3] is around 0.4 µg/mL.

B6: Cross318 (antibody, human IgG1, kappa, V domains shown)
VH: EVQLLESGGGLVQPGGSLKLSCAASGFTFNTYAMNWVRQAPGKGLEWVARIRSKYNNYATYYADSVKDRFTISRDDSKNTAYLQMNNLKTEDTAVYYCVRHGNFGNSYVSWFAMWGQGTLVTVSS
VL: ELVVTQEPSLTVSPGGTVTLTCRSSTGAVTTSNYANWVQQKPGQAPRGLIGGTNKRAPGTPARFSGSLLGGKAALTLSGVQPEDEAEYYCALWYSNLWVFGGGTKLTVLR
For the molecule B6, the “EC50 (read off the curve)” value in assay [1] is around 0.03 µg/mL. In assay [2], the Fold change was 20.1, the Kd was determined as 3.32 nM, the koff turned out to be 0.0056 s⁻¹ and the kon came to 1.69e+06 M⁻¹ s⁻¹.
